Laboratory results from patent US20250368740A1 (SHENZHEN BAISHITONG TECHNOLOGY DEVELOPMENT, published 2025).
Where “and” joins values, the source holds several entries; their conditions need not be identical. Equal values may be shown once. Where no end group is shown, it is not given here. The star is where a group is joined. Biotin = O=C1N[C@H]2[C@H](CS[C@H]2CCCCC(=O)*)N1

T1: recombinant human CD276-ECD protein (human, UniProt Q5ZPR3 29-255)
T1 construct: Purchased from Acro BIOSYSTEMS; Used native (ELISA) and reduced and denatured (Western blot); also called B7-H3
T1 sequence: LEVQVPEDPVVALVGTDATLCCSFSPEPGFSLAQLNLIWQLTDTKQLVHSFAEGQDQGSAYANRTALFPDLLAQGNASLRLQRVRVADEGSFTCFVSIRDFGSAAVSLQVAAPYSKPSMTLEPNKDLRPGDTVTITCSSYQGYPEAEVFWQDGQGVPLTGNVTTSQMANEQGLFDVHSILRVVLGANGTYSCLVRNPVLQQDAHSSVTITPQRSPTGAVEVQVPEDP

T2: peptide 1-1, bio-ASMTLEPNKD LRPGDTVTI (145-164)
T2 construct: Alanine-scan variant of peptide 1
T2 peptide: Biotin-ASMTLEPNKDLRPGDTVTI

T3: peptide 1-2, bio-P AMTLEPNKD LRPGDTVTI (145-164)
T3 construct: Alanine-scan variant of peptide 1
T3 peptide: Biotin-PAMTLEPNKDLRPGDTVTI

T4: peptide 1-3, bio-PS ATLEPNKD LRPGDTVTI (145-164)
T4 construct: Alanine-scan variant of peptide 1
T4 peptide: Biotin-PSATLEPNKDLRPGDTVTI

T5: peptide 1-4, bio-PSM ALEPNKD LRPGDTVTI (145-164)
T5 construct: Alanine-scan variant of peptide 1
T5 peptide: Biotin-PSMALEPNKDLRPGDTVTI

T6: peptide 1-5, bio-PSMT AEPNKD LRPGDTVTI (145-164)
T6 construct: Alanine-scan variant of peptide 1
T6 peptide: Biotin-PSMTAEPNKDLRPGDTVTI

T7: peptide 1-6, bio-PSMTL APNKD LRPGDTVTI (145-164)
T7 construct: Alanine-scan variant of peptide 1
T7 peptide: Biotin-PSMTLAPNKDLRPGDTVTI

T8: peptide 1-8, bio-PSMTLEP AKD LRPGDTVTI (145-164)
T8 construct: Alanine-scan variant of peptide 1
T8 peptide: Biotin-PSMTLEPAKDLRPGDTVTI

T9: peptide 1-9, bio-PSMTLEPN AD LRPGDTVTI (145-164)
T9 construct: Alanine-scan variant of peptide 1
T9 peptide: Biotin-PSMTLEPNADLRPGDTVTI

T10: peptide 1-13, bio-PSMTLEPNKD LR AGDTVTI (145-164)
T10 construct: Alanine-scan variant of peptide 1
T10 peptide: Biotin-PSMTLEPNKDLRAGDTVTI

T11: peptide 1-16, bio-PSMTLEPNKD LRPGD AVTI (145-164)
T11 construct: Alanine-scan variant of peptide 1
T11 peptide: Biotin-PSMTLEPNKDLRPGDAVTI

T12: peptide 1-17, bio-PSMTLEPNKD LRPGDT ATI (145-164)
T12 construct: Alanine-scan variant of peptide 1
T12 peptide: Biotin-PSMTLEPNKDLRPGDTATI

T13: peptide 1-18, bio-PSMTLEPNKD LRPGDTV AI (145-164)
T13 construct: Alanine-scan variant of peptide 1
T13 peptide: Biotin-PSMTLEPNKDLRPGDTVAI

T14: peptide 1-19, bio-PSMTLEPNKD LRPGDTVT A (145-164)
T14 construct: Alanine-scan variant of peptide 1
T14 peptide: Biotin-PSMTLEPNKDLRPGDTVTA

T15: human CD276 on the surface of tumor cells (human, UniProt Q5ZPR3 29-534)
T15 construct: whole, on cells; Endogenous expression on human tumor cell lines; also called CD276 on A498 cells
T15 sequence (looked up): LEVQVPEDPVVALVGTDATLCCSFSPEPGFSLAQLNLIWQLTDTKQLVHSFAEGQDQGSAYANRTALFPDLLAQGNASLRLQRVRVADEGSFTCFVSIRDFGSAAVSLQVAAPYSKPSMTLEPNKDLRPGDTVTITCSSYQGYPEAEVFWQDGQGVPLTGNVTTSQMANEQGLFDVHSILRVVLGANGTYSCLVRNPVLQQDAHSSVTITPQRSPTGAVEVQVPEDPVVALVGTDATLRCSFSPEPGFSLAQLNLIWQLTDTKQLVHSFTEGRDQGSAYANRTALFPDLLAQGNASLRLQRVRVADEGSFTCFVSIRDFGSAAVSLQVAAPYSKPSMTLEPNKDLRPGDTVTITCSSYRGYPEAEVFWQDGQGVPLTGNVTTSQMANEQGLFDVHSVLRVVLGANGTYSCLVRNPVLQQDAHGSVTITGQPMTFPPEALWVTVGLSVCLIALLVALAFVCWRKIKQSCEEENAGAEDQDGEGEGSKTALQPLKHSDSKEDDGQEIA

T16: mouse CD276-ECD (mouse, UniProt Q8VE98 29-244)
T16 construct: Purchased from Acro BIOSYSTEMS; also called mouse CD276-ECD protein
T16 sequence: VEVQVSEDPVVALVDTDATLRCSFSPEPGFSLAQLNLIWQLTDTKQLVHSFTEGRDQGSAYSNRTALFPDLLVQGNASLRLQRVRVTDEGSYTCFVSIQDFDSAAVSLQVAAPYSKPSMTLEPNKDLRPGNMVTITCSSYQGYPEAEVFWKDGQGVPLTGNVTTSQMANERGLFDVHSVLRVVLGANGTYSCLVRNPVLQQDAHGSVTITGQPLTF

T17: crab-eating macaque CD276-ECD (crab-eating macaque, UniProt Q5ZPR3 217-452 (human entry))
T17 construct: Purchased from Acro BIOSYSTEMS; also called crab-eating macaque CD276-ECD protein; crab-eating macaque CD276-ECD antigen
T17 chain: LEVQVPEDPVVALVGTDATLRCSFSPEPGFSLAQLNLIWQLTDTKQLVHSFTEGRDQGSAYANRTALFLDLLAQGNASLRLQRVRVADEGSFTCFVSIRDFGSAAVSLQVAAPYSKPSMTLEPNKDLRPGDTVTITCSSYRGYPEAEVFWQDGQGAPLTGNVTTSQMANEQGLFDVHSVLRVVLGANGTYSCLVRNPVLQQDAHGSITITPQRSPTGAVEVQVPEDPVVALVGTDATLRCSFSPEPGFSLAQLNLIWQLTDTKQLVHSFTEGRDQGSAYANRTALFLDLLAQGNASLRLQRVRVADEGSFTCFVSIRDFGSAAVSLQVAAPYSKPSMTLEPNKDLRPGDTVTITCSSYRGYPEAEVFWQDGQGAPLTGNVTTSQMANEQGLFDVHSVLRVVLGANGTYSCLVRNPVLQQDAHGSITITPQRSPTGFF


Legend:
[1] = target: T1, recombinant human CD276-ECD protein; assay: indirect ELISA, plate coated with human CD276-ECD
[2] = target: T2, peptide 1-1, bio-ASMTLEPNKD LRPGDTVTI …; assay: ELISA on biotin-labeled alanine-scan peptides
[3] = target: T3, peptide 1-2, bio-P AMTLEPNKD LRPGDTVTI …; assay: ELISA on biotin-labeled alanine-scan peptides
[4] = target: T4, peptide 1-3, bio-PS ATLEPNKD LRPGDTVTI …; assay: ELISA on biotin-labeled alanine-scan peptides
[5] = target: T5, peptide 1-4, bio-PSM ALEPNKD LRPGDTVTI …; assay: ELISA on biotin-labeled alanine-scan peptides
[6] = target: T6, peptide 1-5, bio-PSMT AEPNKD LRPGDTVTI …; assay: ELISA on biotin-labeled alanine-scan peptides
[7] = target: T7, peptide 1-6, bio-PSMTL APNKD LRPGDTVTI …; assay: ELISA on biotin-labeled alanine-scan peptides
[8] = target: T8, peptide 1-8, bio-PSMTLEP AKD LRPGDTVTI …; assay: ELISA on biotin-labeled alanine-scan peptides
[9] = target: T9, peptide 1-9, bio-PSMTLEPN AD LRPGDTVTI …; assay: ELISA on biotin-labeled alanine-scan peptides
[10] = target: T10, peptide 1-13, bio-PSMTLEPNKD LR AGDTVTI …; assay: ELISA on biotin-labeled alanine-scan peptides
[11] = target: T11, peptide 1-16, bio-PSMTLEPNKD LRPGD AVTI …; assay: ELISA on biotin-labeled alanine-scan peptides
[12] = target: T12, peptide 1-17, bio-PSMTLEPNKD LRPGDT ATI …; assay: ELISA on biotin-labeled alanine-scan peptides
[13] = target: T13, peptide 1-18, bio-PSMTLEPNKD LRPGDTV AI …; assay: ELISA on biotin-labeled alanine-scan peptides
[14] = target: T14, peptide 1-19, bio-PSMTLEPNKD LRPGDTVT A …; assay: ELISA on biotin-labeled alanine-scan peptides
[15] = target: T15, human CD276 on the surface of tumor …; assay: flow cytometry on human renal cancer cells A498
Protocol: In this experiment, human renal cancer cells A498 were used as the target cells. […] The cells were washed twice with PBS to remove those secondary antibody unbinding to the cells and then resuspended in 100 μL PBS.

C2-type 1-Fc = target: T18, C2-type 1-Fc (human); assay: Western blot on Fc fusion proteins of the domains
T18 construct: Expressed in Expi-293F cells, purified on Protein A, tested by Western blot; also called Ig-like C2-type 1 (Domain 2) of human CD276-ECD linked to human Fc; second functional domain of human CD276-ECD

mouse CD276-ECD = target: T16, mouse CD276-ECD; assay: indirect ELISA, plate coated with 2 µg/mL mouse CD276-ECD
Protocol: (§1) The specific method was as follows: The plates were pre-coated with crab-eating macaque and mouse CD276-ECD proteins diluted to 2 μg/mL in the coating solution (50 mM carbonate coating buffer, pH 9.6) and incubated at 4° C. overnight. The plates were then blocked with 5% skim milk powder at 37° C. for 2 hours. Afterward, the plates were washed 3 times with PBST, and the to-be-tested antibody, diluted in 1% BSA-PBST at various gradients, was added to the blocked plates at 100 μL per well. The plates were incubated at 37° C. for 1 hour. After washing the plates 3 times with PBST, HRP-conjugated goat anti-mouse IgG secondary antibody (purchased from Millipore) was added, and the plates were incubated at 37° C. for 30 minutes. After 3 more washes with PBST, residual droplets were removed by blotting on absorbent paper. Then, 100 μL of TMB substrate (purchased from KPL) was added to each well, and the plates were incubated at room temperature (20±5° C.) in the dark for 5 minutes. Finally, 50 μL of 2 M H2SO4 was added to each well to terminate the substrate reaction, and the OD value at 450 nm was read using a microplate reader to analyze the binding ability of the to-be-tested antibody to the target antigens, i.e., crab-eating macaque and mouse CD276-ECD proteins.

[16] = target: T17, crab-eating macaque CD276-ECD; assay: indirect ELISA, plate coated with crab-eating macaque CD276-ECD
Protocol: as §1

T18 sequence (chain, as listed by the source limits assumed): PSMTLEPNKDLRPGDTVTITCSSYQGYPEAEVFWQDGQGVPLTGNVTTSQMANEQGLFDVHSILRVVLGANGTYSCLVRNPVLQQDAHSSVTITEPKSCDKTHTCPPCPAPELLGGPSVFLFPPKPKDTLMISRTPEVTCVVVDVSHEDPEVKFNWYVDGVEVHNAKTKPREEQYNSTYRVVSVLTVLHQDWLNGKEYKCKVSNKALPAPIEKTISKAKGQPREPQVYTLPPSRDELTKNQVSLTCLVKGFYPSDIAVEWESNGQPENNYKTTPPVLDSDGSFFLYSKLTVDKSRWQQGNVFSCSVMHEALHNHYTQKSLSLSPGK

EC50 [1]	binding result [2]	binding result [3]	binding result [4]	binding result [5]	binding result [6]	binding result [7]	binding result [8]	binding result [9]	binding result [10]	binding result [11]	binding result [12]	binding result [13]	binding result [14]	EC50 [15]	binding result (C2-type 1-Fc)	binding result (mouse CD276-ECD)	EC50 [16]	Binder
0.0068 µg/mL and 0.05 nM																		Fc-mutated humanized antibody hu147mu (antibody, human IgG1, kappa, about 150 kDa; also called hul47mu) heavy: not shown light: EIVMTQSPPTLSLSPGERVTLSCRASENVGTYVSWYQQKPGQAPRLLIYGASNRYTGIPARFSGSGSGTDFTLTISSLQPEDFAVYYCGQRYSYPFTFGGGTKLEIKRTVAAPSVFIFPPSDEQLKSGTASVVCLLNNFYPREAKVQWKVDNALQSGNSQESVTEQDSKDSTYSLSSTLTLSKADYEKHKVYACEVTHQGLSSPVTKSFNRGEC
0.0384 µg/mL and 0.26 nM	binds	binds	binds	binds	binds	binds	binds	binds	binds	binds	binds	binds	binds	0.0592 µg/mL and 0.39 nM	binds	no binding	0.0302 µg/mL and 0.2 nM	murine monoclonal antibody 147# (antibody, V domains shown, Murine antibody purified from hybridoma supernatant by Protein G and detected with anti-mouse IgG) VH: QVQLKQSGIELVRPGASVKLSCKTSGYIFTADWIYWVKQRSGQGLEWIGRIYPGVDSTYYNEKFKDKAILTADKSSSTAYMQLNSLKSEDSAVYFCARGGEVRRDFYALDYWGQGTSVTVSS VL: NIVMTQSPESMSMSLGERVTLSCKASENVGTYVSWYQQKPEQSPKLLIYGASNRYTGVPARFTGSGSATDFTLTISSVQAEDLADYHCGQRYSYPFTFGSGTKLEIK
